Experiment [1] deals with HAdV7病毒原液 (human/CHN/GZ6965/2001). Briefly: cell-based or functional assay.
For the next experiment, the target named is 合成的口蹄疫病毒多肽抗原. The experiment is described as follows: ELISA, antigen coated on plate, anti-human IgG-HRP detection. For orientation: In an ELISA, binding on a coated surface is turned into a signal by an enzyme label.

B1: 10G12抗体 (antibody, V domains shown)
VH: QVQLKQPGAELVRPGASVKLSCKASGYSFTNYWMHWMKQRPGQGLEWIGMIDPSDSETRLNQKFKDKATLTVDKSSSIAYMQLSSPTSEDSAVYYCARDRYDGGAWFDYWSQGTLVT
VL: DIVMTQTPLSLPVSLGDQASISCRSSQSLVHSNGNTYLHWYLQKPGQSPKLLIYKVSNRFSGVPDRFSVSGSGTDFTLKISRVEAEDLGVYFCSQSTHVPPTFGGGTKLEIK
notes: also called 单克隆抗体10G12
In the case of B1, the “抗体对腺病毒感染的抑制率 (EC50, CPE on A549 cells)” value in experiment [1] worked out at 0.2 µg/mL. Further, the binding result in the experiment with 合成的口蹄疫病毒多肽抗原 is “no binding (tested: 300μg/ml)”.

Source of the values: patent CN110294802A (INST MILITARY MEDICINE ACADEMY MILITARY SCIENCES PLA, dated 2019).
